# From US12721801B2, “Compositions and methods relating to stimulation of hyaluronic acid” (Alastin Skincare, Inc., priority 2020, dated 2026)
# B1: Lactoferrin: a transferrin; wound healing attributes, increases HA secretion (protein, UniProt P02788 20-710, looked up)
# Lactotransferrin: GRRRSVQWCAVSQPEATKCFQWQRNMRKVRGPPVSCIKRDSPIQCIQAIAENRADAVTLDGGFIYEAGLAPYKLRPVAAEVYGTERQPRTHYYAVAVVKKGGSFQLNELQGLKSCHTGLRRTAGWNVPIGTLRPFLNWTGPPEPIEAAVARFFSASCVPGADKGQFPNLCRLCAGTGENKCAFSSQEPYFSYSGAFKCLRDGAGDVAFIRESTVFEDLSDEAERDEYELLCPDNTRKPVDKFKDCHLARVPSHAVVARSVNGKEDAIWNLLRQAQEKFGKDKSPKFQLFGSPSGQKDLLFKDSAIGFSRVPPRIDSGLYLGSGYFTAIQNLRKSEEEVAARRARVVWCAVGEQELRKCNQWSGLSEGSVTCSSASTTEDCIALVLKGEADAMSLDGGYVYTAGKCGLVPVLAENYKSQQSSDPDPNCVDRPVEGYLAVAVVRRSDTSLTWNSVKGKKSCHTAVDRTAGWNIPMGLLFNQTGSCKFDEYFSQSCAPGSDPRSNLCALCIGDEQGENKCVPNSNERYYGYTGAFRCLAENAGDVAFVKDVTVLQNTDGNNNEAWAKDLKLADFALLCLDGKRKPVTEARSCHLAMAPNHAVVSRMDKVERLKQVLLHQQAKFGRNGSDCPDKFCLFQSETKNLLFNDNTECLARLHGKTTYEKYLGPQYVAGITNLKKCSTSPLLEACEFLRK
# Tests used:
# human fibroblast cells = test: HA production assessment, SDS-PAGE of fibroblast supernatants; type: cell-based; details: Experiment 2, primary adult human dermal fibroblasts, 72 hours, octapeptide 100 ug/mL, SymDecanox 250 ug/mL, others 500 ug/mL, FIG. 6
# Procedure: In a second experiment, HA production was also assessed with the test compounds below. Briefly, primary adult human dermal fibroblast cells were cultured until near confluent in 6 well plates. The cells were treated with the compounds and concentrations indicated to the right. After 72 hours, 100 μL of media were collected from each treatment condition and was concentrated in a SpeedVac concentrator to a final volume of ~10 uL.
# All 10 μL of the supernatants were loaded onto an acrylamide gel (NuPAGE 4-12% Bis-Tris Protein Gel) and run at 200V for 3 hours. The gel was stained to detect the presence of HA. Data is seen in FIG. 6. […] Lane 11 is the negative control, representing the untreated cells. This band represents the cells constitutive level of HA. Treating the cells with all the indicated compounds (lanes 1-10) produced an increased level of high molecular weight HA. […]
# human dermal fibroblasts = details: cited from earlier work
molecule,measurement,setting,value
B1,Level of high molecular weight HA (band on gel),human fibroblast cells,secrete high molecular weight HA
same,HA secretion,human dermal fibroblasts; literature (Saito et al. 2011),increases HA secretion
same,Proliferation of fibroblasts,human dermal fibroblasts; literature (Saito et al. 2011; Takayama 2012),promotes proliferation of fibroblasts
